Test results taken from the nanobody polyreactivity screen of Harvey et al. (2022).

Experiment: yeast display, Sf9 membrane polyspecificity reagent, FACS + sequencing; frameworks hold sequencing errors
Procedure, shortened: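 Polyreactivity labels are assigned by the sorting gate from which each nanobody was recovered. The gates were low and high (top ~1%), set on anti-HA fluorescence for expression and streptavidin fluorescence for reagent binding. Before sorting, galactose-induced (36–48 hours) yeast display cells were stained for 1 hour at 4 °C with 10% biotinylated, detergent-solubilized Sf9 membrane reagent.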

| Sequence | polyreactivity (PSR sort gate) |
| --- | --- |
| QVQLEESGGGLVQAGGSLRLSCSASGRIFIKYAMGWYRQAPGKEREFVAAISGRGGSTYYADSVKGRFTISRDNAKNTVYLQMNSLKPEDTAVYYWAKRFFSTGTAAGMYYWGQGTQVTVSS | high polyreactivity |
| QVQLEESGGGLVQAGGSLRLSFAASGRIFRRYAMGWYRQAPVKERELVAAISSRGGRTYYADSVKGRFTISRDNAKNTVYLQMNSLKPDDTAVYYCAAYYFFTDTYGPYEYWGQGTQVTVSS | high polyreactivity |
| QVQLEESGGGLVQAGGSLRLSSAASGYIFDWYAMGWYRQAPGKEREFVAAISGSDGSTYYADSVKGRFTISRDNAKNTVYLQMNSLKPVDTPVYYCAADPYYGDMEYWGQGTQVTVSS | low polyreactivity |
| QVQLEESGGGLVQAGGSLRLTCAASGRIFYRYAMGWYRQAPGKEREFVAAISGTGGSTYYADSVKGRFTISRDNAKNTVNLQMNSLKPEDTAVYYCAAVSYYSSGYDYWGQGTQVTVSS | high polyreactivity |
| QVQLEESGGGLVQAGGSLRLTCDASGLIFSYYAMGWYRQAPGKERELVAAITGSGGTTYYADSVKGRFTISRDNAKNTVLLQMNSLKPEDTAVYYCATPPPEVWQRWYREYDYWGQGTQVTVSS | low polyreactivity |
| QVQLEESGGGLVQAGGSLSLSCAASGFIFPTYAMGWYRQAPGKERELVAVISGGGRTKYADSVKGRFTISRDNAKNTVYLQMNSLKPEDTAVYYCNADYWKGWTKFEYWGQGTQVTLSS | high polyreactivity |
| QVQLEESGGGLVQAGGSLSLSCAASGSIFYGYAMGWYRQAPGKERELVAAITSGGRTYYADSVKGRFTISRDNAKNTVYLQMNSLKPEDTAVYYCNAVYRKTSYGYWGQGTQVTVSS | high polyreactivity |
| QVQLEESGGGLVQAGGTLRLSCAASGSTYVPYAMGWNRQETGKERELVSAIRRRGDSTNYADSVKGRFTISRDNAKNTVYLQMNSLKPEDTAVYYCAVRPYRSACGSVTRGAYYYWGQGTQVTVSS | high polyreactivity |
| QVQLEESGGGLVQAGRSLRLSCAASGRTFNAYTMGWYRQAPGKERELVAAITSSGGNTYYADSVKGRFTISRDNVKNSVSLQINSLKPEDTAVYYCTTVYLYGTHDYWGQGTQVTLSS | low polyreactivity |
| QVQLEESGGGLVQAGVSLRLSCAASGRIFGVYTMGWYRQAPGKERELVAAISRTGGRTYYADSVKGRFTISRDNAKNTVYLQMNSLKPEDTAVYYCAADSRGEDYYYWGQGTQVTVSS | high polyreactivity |
| QVQLEESGGGLVQEGGSLRLICAASGSTFYVYARGWYRQAPGKERELVAAITGSTGSTYYADSVKGRFTISRDNAKNTVELQMNSLKTEVTAFYYCDADFYGVPIIYDYWRQGTQVTVSS | low polyreactivity |
| QVQLEESGGGLVQSGGSLRLSCAASGITFARYTMGWYRQAPGKERELVAAISSAGNTYYGDSVKGRFTISRDNAKNTVYLQMNSLKPEDTAVYYCAREYTYYPRWVGYDAYGEDYWGQGTQVTVSS | low polyreactivity |
| QVQLEESGGGLYQAGGSLRLSCAASGSILDFNAMVWYRQAPGKEMELVASIRWSGGSTYYADSVKGRFTISRDYAKNTVYFQMNSLKPEDTAVYYCAAVTYGYYRSRYSSIQPNEYDYLGQGTQVTVSS | high polyreactivity |
| QVQLEESGGGVVQAGGSLRLSCAASGRTFYHKAMGWYRQAPGKETQVVATINSGGSTYADSVKGRFTISRDNAKNTVYLQMNSVKPEDTAVYYCAATFWSRSRFYYGYDYWGQGTQVTVSS | high polyreactivity |
| QVQLEESGGGVVQAGGSLRLSCAASGSIFRKYAMGWYRQAPGKERELVATISWNGGRTHYADSVKGRFTISRDNAKNTVYLLMNSLKPEDTAVYYCNKDAASFRHFYGYGYWGQGTQVTVSS | low polyreactivity |
| QVQLEESGGRLVQAGGSLRLICAASGRIFRFYTMGWYIQAPGKERELVAAITSSGRTYYADSVKGRFTISRDNAKNTVYLQMKSLKPEDTAVYYCNKYFRPRTILPSPGEYLGQGTQVTVSS | high polyreactivity |
| QVQLEESGGRLVQAGGSLRLSCAASGLIFAVYAMGWYRQAPGKERELVASSTGSTYYADSVKGRFTISRDNAKNTVYLQMNSLKPEDHAVYYCAADIIRVLDIPLYYWGQGSQVTVSS | low polyreactivity |
| QVQLEESGGRLVQAGGSLRLSCAASGRTFDGNTMGWYRQAPGKERELVAAITYSGTSTYYADSVKGRFTISRDNAKNTVDVQMNSLKPEDTAVYYCNKPRYYSTYRRYYWGQGTQVTVSS | high polyreactivity |
| QVQLEESGRGLVPAGGSLRLSCAASGFTFDYNTMGWYRQAPGKERELVAAISFRGTSTYYADSVKGRFTISRDNAKNTVYLQMNSLKREDTAVYYCATRDYHVPGRFYYWGQGTQVTVSS | high polyreactivity |
| QVQLEESGRGLVQAGGSLRLSCAASGSTLNYNTMGWYRQAPGKVRELVATISSRGGRTDYADSVKGRFTFSRDNAKNNVYLQMNSLIPEYTAVYSCNALPRVVYTVGQSTFYYWGQGTQVTVSS | high polyreactivity |
| QVQLEESGRGLVQAGGSLRLSCAASVSTCCENAMGWYRQAPGKERELVAAISWGGGSKYYADSVKGRFTISRDNAMNTVYLQMNSLKQEDTAVYYCNADVFDDYGYFESDYWGQGTQVTVSS | low polyreactivity |
| QVQLEESGVGLVQAGGSLRLSCAASGFIFSFYAMGWSRQAPGKERELVAVISKSGGSTYYADSVKGRFTISRDNAKNTVYLQMNSLKPEDTAVYFCAADSTVGRLLSFDYWGQGTQVTVSS | low polyreactivity |

| Sequence | polyreactivity (PSR sort gate) |
| --- | --- |
| QVQLEESGVGLVQAGGSLRLSCAASGSIYGYAMGWYRQSPGKQRELVASISSGGSTYYADSVKGRFTISRDNAKNSVYLQMNSLKPEDTAVYYCAARAYSYQAQSYYWGQGTQVTVSS | high polyreactivity |
| QVQLEESRGGLVHAGGSLRLSCAASGYSFYIYAMGWYRQAPGKERELVAAISSSGGRTYYADSVKGRFTISRDNAKNTVYLQMNSLKPEDTAVYYCNALYRYGWLYAPKYNSCGQGTQVTVSS | high polyreactivity |
| QVQLEESRGGLVQAGGSLRLICAASGFTFRQNAMGWYRQAPGKERELVAAISRGGGGTHYADSVKGRFSISRDNAKNTVYLQMNSLKPEDTAVYYCAKRRYPTFVVPVYYWGQGTQVTVSS | high polyreactivity |
| QVQLEESVGGLVQAGVSLRLSCAASGRFFYFYAMGWYRQAPAKERELVASISSGGITIYADSVKGRFTISRDNSKYTVYLQMYSLKREDTAVYYCNAGYASGKYSGVYLYGYLGQGTQVTVSS | low polyreactivity |
| QVQLEETGGGLVQAGGSLPLSCAASGRTFRFYTMGWYRQAPGKERELVAVISNGGSTNYADSVKGRFTISRDNANTTVYLQMNSLKPEDTAVYDCAAGWVWSGNDYYYWGQGTQVTVSS | low polyreactivity |
| QVQLEETGGGLVQAGGSLRLSCAASGLTFGVYAMGRYRQAPGKEMELVAAITWRGDTTYYADSVKGRFTISRYNAKNTVYLQMNSLKPEDSAVYYCAKDVPYRRVRSEYWGQGTQVTVSS | low polyreactivity |
| QVQLESGGGLVQAGGRLRLSCAASGSIIDQYVMGWYRQAPGKERELVAAISRGGRTYYADSVKGRFTISRDNAKNTVYLQMNSLKPVDSSVYYCAARSDVRGFDYWGQGTQVTVSS | low polyreactivity |
| QVQLESGGGLVQAGGSLRLRCEASGITFQLYDMGWYRQAPGKERELVAAINSSGGSTYYADSVKGRFTISRDNAKNTVYLQMNSLKPEDTAVYYCNVGFAPVTNDQPVSTEYDYWGQGTQVTVSS | low polyreactivity |
| QVQLESGGGLVQAGGSLRLSCAASGITFQLYDMGWYRQAPGKERELVAAINSSGGSTYYADSVKGRFTISRDNAKNTVYLQMNSLKPEDTAVYYCNVGFAPVTNDQPVSTEYDYWGQGTQVTVSS | low polyreactivity |
| QVQLEVSGGGLVQAGGSIRLSCAASGSTFGGNAMGWYRQAPRKERELVAAIDSGGSTYADSVKGRFTISRDNAKNTVYLQMNSLKPEDTAVYYCADWFSAYYSLYRHRGYWGQGTQVTVSS | low polyreactivity |
| QVQLGESAGGLVQAGGSLRLSCAATGRTFRWYTMGWYRQAPGKERELVAGIRSTGGSTYYADSVKGRFTISRDNAKNTVYLQMNSLKPEDTEVYYCAIVTLTSRYASYYYWGQGTQVTVSS | high polyreactivity |
| QVQLGESGEGLVQAGGSLRLSCAASGFTCGYYTMGLYRQAPGKERELVAAISSSGGRTYYADSVKGRFTISRDNAKNSVYFQMNSLKPEDTAVYYCNVYYISTDLYYWGQGTQVTVSS | high polyreactivity |
| QVQLGESGGGIVQAGGSLRLSCAASGRTLQQYVMGWYRQAPGKETELVAAITRGGRTNYADSVKGRFTISRDNAKNTVYLQRNSLKPEDTAVYYCNSRYPSRLVAWLDYWGQGTQVTVSS | low polyreactivity |
| QVQLGESGGGLVPAGGSLRLSCAASGGTFKTNAMGWYRQAPGKERELVAAITGSGTSTYYADSVKGRFTISRDNAKNTVYLHMNSLKPEDTAVYYCAADNLYHPGIGDDYWGQGTQVTVSS | low polyreactivity |
| QVQLGESGGGLVQAGGCLRLSCAASGSIFAANAMGWYRQAPGKERELVAAINSGDSTNYADSVKGRFTISRDYAKKTVYLQMNSLKPEDTAVYYCARGLEERYDYWGQGTQVTVSS | low polyreactivity |
| QVQLGESGGGLVQAGGSLRLICAASGSIFDQYAMGWSRPAPGKERELVAAIDTSGGSTYYADSVKGRFTISRDNAKYTVYLQMNSLKPEDTAVYYCAARGDGTFYEGYDYWGQGTQVTVSS | low polyreactivity |
| QVQLGESGGGLVQAGGSLRLSCAASGFIFFSNAMGWYRQAPGKERELVAAIRSGGSTNYADSVKGRFTISRDNAKNTVYLQMNSQKPEDTAVYYCNVLWLRSRRKYDYWGQGTQVTVSS | low polyreactivity |
| QVQLGESGGGLVQAGGSLRLSCAASGFTFRIYTMGWYRQAPGKERELVAAISSRGGSTYYADSVKGRFTISRDNAKNTVYLQMNSLKPEDTAVYYCAASGRVYSSGYDYWGQGTQVTVSS | high polyreactivity |
| QVQLGESGGGLVQAGGSLRLSCAASGNTFYRNAMGWYRQAPGKERELVAAIDYSAGSTYYADCVKGRFTISRDNAKNTVYLQMHSLKPEDTADDYCAAVARTSRGRRYYSWGQGTQVTVSS | low polyreactivity |
| QVQLGESGGGLVQAGGSLRLSCAASGRIFSAYAMGWSRQEPGKERELVAAITRSGGSTYYADSVKGRFTISRDNAKNTVYLQMNSLKPEDTAVYYCAAGYFVSDAWSWYHWVEHGYWGQGTQVTVSS | high polyreactivity |
| QVQLGESGGGLVQAGGSLRLSCAASGRISGYAMGWYRQAPGKERELVAAISKSAARTYYADSVKGRFTISRDNAKNTVYLQMNSLKPEDTAVYYCAADKPYRYDYWGQGTQVTLSS | high polyreactivity |
